The text below walks through data of US6866854.

The assay has as its target p53 (UniProt P04637). Briefly: cell-based or functional assay.

Sequence of p53 (P04637 whole entry): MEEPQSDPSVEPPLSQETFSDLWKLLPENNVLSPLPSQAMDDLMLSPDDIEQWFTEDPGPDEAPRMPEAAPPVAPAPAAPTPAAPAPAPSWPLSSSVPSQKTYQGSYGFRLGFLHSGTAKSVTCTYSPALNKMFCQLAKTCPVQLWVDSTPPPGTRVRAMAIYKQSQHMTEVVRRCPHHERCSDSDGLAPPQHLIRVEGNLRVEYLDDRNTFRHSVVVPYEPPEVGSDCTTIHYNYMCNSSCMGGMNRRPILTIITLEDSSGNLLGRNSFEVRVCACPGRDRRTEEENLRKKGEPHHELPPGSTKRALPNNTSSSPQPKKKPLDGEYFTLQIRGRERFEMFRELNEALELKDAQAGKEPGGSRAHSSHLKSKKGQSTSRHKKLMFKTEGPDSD

As for “Kaposi's sarcoma-associated herpesvirus latency-associated nuclear antigen 2 (LANA2) (from UniProt F5HIC6 1-566)”, the inhibition of doxorubicin-induced (endogenous p53) activation of the pG13-Luc reporter in U2OS cells is 57%; the inhibition of p53 activation of the pG13-Luc reporter in SAOS-2 cells was 87%; the subdiploid (apoptotic) fraction of SAOS-2 cells expressing p53 with LANA2, propidium iodide flow cytometry was 10.8%.
